Reference: the supplement of paper PMC5998384

Experiments:
HeLa Kyoto [1] = experiment: solubility in G1/S (NP-40 vs SDS abundance) (log2 ratio); higher = more soluble; details: cell cycle stage: G1/S
HeLa Kyoto [2] = experiment: melting temperature (median over replicates), in situ; higher = more thermally stable
HeLa Kyoto [3] = experiment: solubility change mitosis vs G1/S (difference of NP-40 vs SDS log2 ratios) (log2 ratio difference); higher = more soluble in mitosis
HeLa Kyoto [4] = experiment: thermal stability score vs G1/S (z-score of summed log2 fold changes over temperatures); higher = more thermally stable than in G1/S
[5] = cell cycle stage: early G1 (4.5 h after nocodazole release)
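For melting temperature (median over replicates), in situ in this document: HeLa Kyoto cells synchronized by double thymidine or nocodazole block, proteins quantified by TMT10plex mass spectrometry, three independent biological replicates.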
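For solubility change mitosis vs G1/S (difference of NP-40 vs SDS log2 ratios) in this document: synchronized HeLa Kyoto cells (double thymidine block for G1/S, nocodazole release for mitosis), protein amounts in NP-40 versus SDS lysates quantified by mass spectrometry, three biological replicates.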
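For solubility in G1/S (NP-40 vs SDS abundance) in this document: HeLa Kyoto cells arrested at G1/S by double thymidine block, proteins quantified by TMT10plex mass spectrometry in mild NP-40 versus SDS extracts, three biological replicates.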
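For thermal stability score vs G1/S (z-score of summed log2 fold changes over temperatures) in this document: synchronized HeLa Kyoto cells, proteins quantified by TMT10plex mass spectrometry, three biological replicates, mitosis taken 0.5 h after nocodazole release, G1/S directly after double thymidine block.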

Sequence of PPIE (chain, as listed by the source): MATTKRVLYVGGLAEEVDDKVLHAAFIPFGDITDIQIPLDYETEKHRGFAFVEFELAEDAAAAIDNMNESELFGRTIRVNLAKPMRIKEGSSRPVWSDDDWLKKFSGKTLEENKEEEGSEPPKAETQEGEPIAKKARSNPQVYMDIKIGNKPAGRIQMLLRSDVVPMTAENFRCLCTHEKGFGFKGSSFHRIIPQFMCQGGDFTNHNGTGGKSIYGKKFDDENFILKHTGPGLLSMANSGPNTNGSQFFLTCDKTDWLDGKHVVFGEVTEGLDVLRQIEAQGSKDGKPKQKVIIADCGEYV
Sequence of DHX9 (chain, as listed by the source): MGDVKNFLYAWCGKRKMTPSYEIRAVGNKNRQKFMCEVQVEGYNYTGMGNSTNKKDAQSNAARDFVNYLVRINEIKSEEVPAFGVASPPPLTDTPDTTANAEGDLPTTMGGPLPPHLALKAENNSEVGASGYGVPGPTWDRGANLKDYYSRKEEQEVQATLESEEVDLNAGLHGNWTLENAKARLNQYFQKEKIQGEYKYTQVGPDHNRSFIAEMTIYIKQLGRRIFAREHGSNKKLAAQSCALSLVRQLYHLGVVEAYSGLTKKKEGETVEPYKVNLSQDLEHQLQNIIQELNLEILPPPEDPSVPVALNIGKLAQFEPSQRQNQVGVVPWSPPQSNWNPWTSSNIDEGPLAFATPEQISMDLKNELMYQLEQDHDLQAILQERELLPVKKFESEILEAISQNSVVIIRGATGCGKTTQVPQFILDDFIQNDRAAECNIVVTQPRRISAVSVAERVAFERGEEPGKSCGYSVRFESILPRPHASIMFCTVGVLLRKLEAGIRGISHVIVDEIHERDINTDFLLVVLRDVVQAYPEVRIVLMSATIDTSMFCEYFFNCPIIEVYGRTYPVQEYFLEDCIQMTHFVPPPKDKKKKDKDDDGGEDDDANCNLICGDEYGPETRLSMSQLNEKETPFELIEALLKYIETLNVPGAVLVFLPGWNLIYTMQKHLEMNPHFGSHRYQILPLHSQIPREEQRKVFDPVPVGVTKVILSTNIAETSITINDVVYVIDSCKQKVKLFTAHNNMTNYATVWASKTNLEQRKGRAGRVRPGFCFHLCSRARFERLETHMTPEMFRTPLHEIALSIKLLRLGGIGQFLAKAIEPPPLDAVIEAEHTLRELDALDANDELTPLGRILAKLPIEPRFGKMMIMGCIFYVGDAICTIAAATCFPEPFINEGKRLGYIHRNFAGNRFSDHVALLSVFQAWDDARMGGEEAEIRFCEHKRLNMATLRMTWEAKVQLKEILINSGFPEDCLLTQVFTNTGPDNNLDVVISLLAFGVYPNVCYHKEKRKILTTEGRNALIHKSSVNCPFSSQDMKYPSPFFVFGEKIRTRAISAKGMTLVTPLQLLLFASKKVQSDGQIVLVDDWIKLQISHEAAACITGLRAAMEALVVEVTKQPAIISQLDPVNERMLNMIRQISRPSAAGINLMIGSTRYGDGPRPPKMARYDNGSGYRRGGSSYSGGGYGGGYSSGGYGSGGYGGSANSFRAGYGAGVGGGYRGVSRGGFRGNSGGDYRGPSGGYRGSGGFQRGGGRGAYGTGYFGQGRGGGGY

Substance	solubility in G1/S (log2) (HeLa Kyoto [1])	melting temperature (HeLa Kyoto [2]; cell cycle stage: G1/S) [°C]	melting temperature (HeLa Kyoto [2]; cell cycle stage: mitosis) [°C]	solubility change mitosis (log2) (HeLa Kyoto [3])	thermal stability score (HeLa Kyoto [4]; [5])	thermal stability score (HeLa Kyoto [4]; cell cycle stage: mitosis)
MSKGPGPGGSAASSAPPAATAQVLQAQPEKPQHYTYLKEFRTEQCPLFVQHKCTQHRPYTCFHWHFVNQRRRRSIRRRDGTFNYSPDVYCTKYDEATGLCPEGDECPFLHRTTGDTERRYHLRYYKTGICIHETDSKGNCTKNGLHCAFAHGPHDLRSPVYDIRELQAMEALQNGQTTVEGSIEGQSAGAASHAMIEKILSEEPRWQETAYVLGNYKTEPCKKPPRLCRQGYACPYYHNSKDRRRSPRKHKYRSSPCPNVKHGDEWGDPGKCENGDACQYCHTRTEQQFHPEIYKSTKCNDMQQSGSCPRGPFCAFAHVEQPPLSDDLQPSSAVSSPTQPGPVLYMPSAAGDSVPVSPSSPHAPDLSALLCRNSSLGSPSNLCGSPPGSIRKPPNLEGIVFPGESGLAPGSYKKAPGFEREDQVGAEYLKNFKCQAKLKPHSLEPRSQEQPLLQPKQDMLGILPAGSPLTSSISSSITSSLAATPPSPVGTSSVPGMNANALPFYPTSDTVESVIESALDDLDLNEFGVAALEKTFDNSTVPHPGSITIGGSLLQSSAPVNIPGSLGSSASFHSASPSPPVSLSSHFLQQPQGHLSQSENTFLGTSASHGSLGLNGMNSSIWEHFASGSFSPGTSPAFLSGPGAAELARLRQELDEANSTIKQWEESWKQAKQACDAWKKEAEEAGERASAAGAECELAREQRDALEVQVKKLQEELERLHAGPEPQALPAFSDLEALSLSTLYSLQKQLRAHLEQVDKAVFHMQSVKCLKCQEQKRAVLPCQHAALCELCAEGSECPICQPGRAHTLQS [UNK]	0.0454	51	50.9	-0.0731	0.349	1.68
MHRDSCPLDCKVYVGNLGNNGNKTELERAFGYYGPLRSVWVARNPPGFAFVEFEDPRDAADAVRELDGRTLCGCRVRVELSNGEKRSRNRGPPPSWGRRPRDDYRRRSPPPRRRSPRRRSFSRSRSRSLSRDRRRERSLSRERNHKPSRSFSRSRSRSRSNERK [SRSF3]	-0.0567	55.3	54.2	0.503	-0.84	-4.46
MASSVGNVADSTEPTKRMLSFQGLAELAHREYQAGDFEAAERHCMQLWRQEPDNTGVLLLLSSIHFQCRRLDRSAHFSTLAIKQNPLLAEAYSNLGNVYKERGQLQEAIEHYRHALRLKPDFIDGYINLAAALVAAGDMEGAVQAYVSALQYNPDLYCVRSDLGNLLKALGRLEEAKACYLKAIETQPNFAVAWSNLGCVFNAQGEIWLAIHHFEKAVTLDPNFLDAYINLGNVLKEARIFDRAVAAYLRALSLSPNHAVVHGNLACVYYEQGLIDLAIDTYRRAIELQPHFPDAYCNLANALKEKGSVAEAEDCYNTALRLCPTHADSLNNLANIKREQGNIEEAVRLYRKALEVFPEFAAAHSNLASVLQQQGKLQEALMHYKEAIRISPTFADAYSNMGNTLKEMQDVQGALQCYTRAIQINPAFADAHSNLASIHKDSGNIPEAIASYRTALKLKPDFPDAYCNLAHCLQIVCDWTDYDERMKKLVSIVADQLEKNRLPSVHPHHSMLYPLSHGFRKAIAERHGNLCLDKINVLHKPPYEHPKDLKLSDGRLRVGYVSSDFGNHPTSHLMQSIPGMHNPDKFEVFCYALSPDDGTNFRVKVMAEANHFIDLSQIPCNGKAADRIHQDGIHILVNMNGYTKGARNELFALRPAPIQAMWLGYPGTSGALFMDYIITDQETSPAEVAEQYSEKLAYMPHTFFIGDHANMFPHLKKKAVIDFKSNGHIYDNRIVLNGIDLKAFLDSLPDVKIVKMKCPDGGDNADSSNTALNMPVIPMNTIAEAVIEMINRGQIQITINGFSISNGLATTQINNKAATGEEVPRTIIVTTRSQYGLPEDAIVYCNFNQLYKIDPSTLQMWANILKRVPNSVLWLLRFPAVGEPNIQQYAQNMGLPQNRIIFSPVAPKEEHVRRGQLADVCLDTPLCNGHTTGMDVLWAGTPMVTMPGETLASRVAASQLTCLGCLELIAKNRQEYEDIAVKLGTDLEYLKKVRGKVWKQRISSPLFNTKQYTMELERLYLQMWEHYAAGNKPDHMIKPVEVTESA [OGT]	0.302	49.4	50.3	-0.0669	-0.271	1.57
MSFDPNLLHNNGHNGYPNGTSAALRETGVIEKLLTSYGFIQCSERQARLFFHCSQYNGNLQDLKVGDDVEFEVSSDRRTGKPIAVKLVKIKQEILPEERMNGQVVCAVPHNLESKSPAAPGQSPTGSVCYERNGEVFYLTYTPEDVEGNVQLETGDKINFVIDNNKHTGAVSARNIMLLKKKQARCQGVVCAMKEAFGFIERGDVVKEIFFHYSEFKGDLETLQPGDDVEFTIKDRNGKEVATDVRLLPQGTVIFEDISIEHFEGTVTKVIPKVPSKNQNDPLPGRIKVDFVIPKELPFGDKDTKSKVTLLEGDHVRFNISTDRRDKLERATNIEVLSNTFQFTNEAREMGVIAAMRDGFGFIKCVDRDVRMFFHFSEILDGNQLHIADEVEFTVVPDMLSAQRNHAIRIKKLPKGTVSFHSHSDHRFLGTVEKEATFSNPKTTSPNKGKEKEAEDGIIAYDDCGVKLTIAFQAKDVEGSTSPQIGDKVEFSISDKQRPGQQVATCVRLLGRNSNSKRLLGYVATLKDNFGFIETANHDKEIFFHYSEFSGDVDSLELGDMVEYSLSKGKGNKVSAEKVNKTHSVNGITEEADPTIYSGKVIRPLRSVDPTQTEYQGMIEIVEEGDMKGEVYPFGIVGMANKGDCLQKGESVKFQLCVLGQNAQTMAYNITPLRRATVECVKDQFGFINYEVGDSKKLFFHVKEVQDGIELQAGDEVEFSVILNQRTGKCSACNVWRVCEGPKAVAAPRPDRLVNRLKNITLDDASAPRLMVLRQPRGPDNSMGFGAERKIRQAGVID [CSDE1]	-0.15	47.6	48.4	-0.111	1.75	4.08
MAAGPISERNQDATVYVGGLDEKVSEPLLWELFLQAGPVVNTHMPKDRVTGQHQGYGFVEFLSEEDADYAIKIMNMIKLYGKPIRVNKASAHNKNLDVGANIFIGNLDPEIDEKLLYDTFSAFGVILQTPKIMRDPDTGNSKGYAFINFASFDASDAAIEAMNGQYLCNRPITVSYAFKKDSKGERHGSAAERLLAAQNPLSQADRPHQLFADAPPPPSAPNPVVSSLGSGLPPPGMPPPGSFPPPVPPPGALPPGIPPAMPPPPMPPGAAGHGPPSAGTPGAGHPGHGHSHPHPFPPGGMPHPGMSQMQLAHHGPHGLGHPHAGPPGSGGQPPPRPPPGMPHPGPPPMGMPPRGPPFGSPMGHPGPMPPHGMRGPPPLMPPHGYTGPPRPPPYGYQRGPLPPPRPTPRPPVPPRGPLRGPLPQ [SF3B4]	0.275	50.9	51.3	0.162	-2.15	-2.49
PPIE	0.351	49	51.7	0.13	1.18	2.29
LRBA	-0.115	51.2	51.2	-0.148	-0.555	-0.768
MGSGPIDPKELLKGLDSFLNRDGEVKSVDGISKIFSLMKEARKMVSRCTYLNILLQTRSPEILVKFIDVGGYKLLNNWLTYSKTTNNIPLLQQILLTLQHLPLTVDHLKQNNTAKLVKQLSKSSEDEELRKLASVLVSDWMAVIRSQSSTQPAEKDKKKRKDEGKSRTTLPERPLTEVKAETRAEEAPEKKREKPKSLRTTAPSHAKFRSTGLELETPSLVPVKKNASTVVVSDKYNLKPIPLKRQSNVAAPGDATPPAEKKYKPLNTTPNATKEIKVKIIPPQPMEGLGFLDALNSAPVPGIKIKKKKKVLSPTAAKPSPFEGKTSTEPSTAKPSSPEPAPPSEAMDADRPGTPVPPVEVPELMDTASLEPGALDAKPVESPGDPNQLTRKGRKRKSVTWPEEGKLREYFYFELDETERVNVNKIKDFGEAAKREILSDRHAFETARRLSHDNMEEKVPWVCPRPLVLPSPLVTPGSNSQERYIQAEREKGILQELFLNKESPHEPDPEPYEPIPPKLIPLDEECSMDETPYVETLEPGGSGGSPDGAGGSKLPPVLANLMGSMGAGKGPQGPGGGGINVQEILTSIMGSPNSHPSEELLKQPDYSDKIKQMLVPHGLLGPGPIANGFPPGGPGGPKGMQHFPPGPGGPMPGPHGGPGGPVGPRLLGPPPPPRGGDPFWDGPGDPMRGGPMRGGPGPGPGPYHRGRGGRGGNEPPPPPPPFRGARGGRSGGGPPNGRGGPGGGMVGGGGHRPHEGPGGGMGNSSGHRPHEGPGGGMGSGHRPHEGPGGSMGGGGGHRPHEGPGGGISGGSGHRPHEGPGGGMGAGGGHRPHEGPGGSMGGSGGHRPHEGPGHGGPHGHRPHDVPGHRGHDHRGPPPHEHRGHDGPGHGGGGHRGHDGGHSHGGDMSNRPVCRHFMMKGNCRYENNCAFYHPGVNGPPLP [PPP1R10]	0.0711	51	50.8	0.274	4.23	3.65
DHX9	-0.671	50.5	50.5	0.211	1.02	2.63
MGNCCWTQCFGLLRKEAGRLQRVGGGGGSKYFRTCSRGEHLTIEFENLVESDEGESPGSSHRPLTEEEIVDLRERHYDSIAEKQKDLDKKIQKELALQEEKLRLEEEALYAAQREAARAAKQRKLLEQERQRIVQQYHPSNNGEYQSSGPEDDFESCLRNMKSQYEVFRSSRLSSDATVLTPNTESSCDLMTKTKSTSGNDDSTSLDLEWEDEEGMNRMLPMRERSKTEEDILRAALKYSNKKTGSNPTSASDDSNGLEWENDFVSAEMDDNGNSEYSGFVNPVLELSDSGIRHSDTDQQTR [AP1AR]	0.104		59.6	-0.24	-0.31	-1.09
MSATVVDAVNAAPLSGSKEMSLEEPKKMTREDWRKKKELEEQRKLGNAPAEVDEEGKDINPHIPQYISSVPWYIDPSKRPTLKHQRPQPEKQKQFSSSGEWYKRGVKENSIITKYRKGACENCGAMTHKKKDCFERPRRVGAKFTGTNIAPDEHVQPQLMFDYDGKRDRWNGYNPEEHMKIVEEYAKVDLAKRTLKAQKLQEELASGKLVEQANSPKHQWGEEEPNSQMEKDHNSEDEDEDKYADDIDMPGQNFDSKRRITVRNLRIREDIAKYLRNLDPNSAYYDPKTRAMRENPYANAGKNPDEVSYAGDNFVRYTGDTISMAQTQLFAWEAYDKGSEVHLQADPTKLELLYKSFKVKKEDFKEQQKESILEKYGGQEHLDAPPAELLLAQTEDYVEYSRHGTVIKGQERAVACSKYEEDVKIHNHTHIWGSYWKEGRWGYKCCHSFFKYSYCTGEAGKEIVNSEECIINEITGEESVKKPQTLMELHQEKLKEEKKKKKKKKKKHRKSSSDSDDEEKKHEKLKKALNAEEARLLHVKETMQIDERKRPYNSMYETREPTEEEMEAYRMKRQRPDDPMASFLGQ [SLU7]	-0.523	46.9	49.9	0.256	0.191	0.493
MELTIFILRLAIYILTFPLYLLNFLGLWSWICKKWFPYFLVRFTVIYNEQMASKKRELFSNLQEFAGPSGKLSLLEVGCGTGANFKFYPPGCRVTCIDPNPNFEKFLIKSIAENRHLQFERFVVAAGENMHQVADGSVDVVVCTLVLCSVKNQERILREVCRVLRPGGAFYFMEHVAAECSTWNYFWQQVLDPAWHLLFDGCNLTRESWKALERASFSKLKLQHIQAPLSWELVRPHIYGYAVK [METTL7A]	-0.294	57.6	56.8	-0.0939	0.77	-0.471
